# B1: MAP2K4 p.S251N: MAP2K4 somatic mutant identified in a melanoma (protein, UniProt P45985 2-399, looked up, variant S251N)
# Dual specificity …: AAPSPSGGGGSGGGSGSGTPGPVGSPAPGHPAVSSMQGKRKALKLNFANPPFKSTARFTLNPNPTGVQNPHIERLRTHSIESSGKLKISPEQHWDFTAEDLKDLGEIGRGAYGSVNKMVHKPSGQIMAVKRIRSTVDEKEQKQLLMDLDVVMRSSDCPYIVQFYGALFREGDCWICMELMSTSFDKFYKYVYSVLDDVIPEEILGKITLATVKALNHLKENLKIIHRDIKPSNILLDRSGNIKLCDFGINGQLVDSIAKTRDAGCRPYMAPERIDPSASRQGYDVRSDVWSLGITLYELATGRFPYPKWNSVFDQLTQVVKGDPPQLSNSEEREFSPSFINFVNLCLTKDESKRPKYKELLKHPFILMYEERAVEVACYVCKILDQMPATPSSPMYVD
# B2: MAP2K4 p.A279T: MAP2K4 somatic driver mutant, observed in colorectal adenocarcinoma (protein, UniProt P45985 2-399, looked up, variant A279T)
# Dual specificity …: AAPSPSGGGGSGGGSGSGTPGPVGSPAPGHPAVSSMQGKRKALKLNFANPPFKSTARFTLNPNPTGVQNPHIERLRTHSIESSGKLKISPEQHWDFTAEDLKDLGEIGRGAYGSVNKMVHKPSGQIMAVKRIRSTVDEKEQKQLLMDLDVVMRSSDCPYIVQFYGALFREGDCWICMELMSTSFDKFYKYVYSVLDDVIPEEILGKITLATVKALNHLKENLKIIHRDIKPSNILLDRSGNIKLCDFGISGQLVDSIAKTRDAGCRPYMAPERIDPSTSRQGYDVRSDVWSLGITLYELATGRFPYPKWNSVFDQLTQVVKGDPPQLSNSEEREFSPSFINFVNLCLTKDESKRPKYKELLKHPFILMYEERAVEVACYVCKILDQMPATPSSPMYVD
# B3: MAP2K4 p.N2341: MAP2K4 somatic driver mutant, observed in ovarian serous carcinoma (protein, UniProt P45985 2-399, looked up, variant N234I)
# Dual specificity …: AAPSPSGGGGSGGGSGSGTPGPVGSPAPGHPAVSSMQGKRKALKLNFANPPFKSTARFTLNPNPTGVQNPHIERLRTHSIESSGKLKISPEQHWDFTAEDLKDLGEIGRGAYGSVNKMVHKPSGQIMAVKRIRSTVDEKEQKQLLMDLDVVMRSSDCPYIVQFYGALFREGDCWICMELMSTSFDKFYKYVYSVLDDVIPEEILGKITLATVKALNHLKENLKIIHRDIKPSIILLDRSGNIKLCDFGISGQLVDSIAKTRDAGCRPYMAPERIDPSASRQGYDVRSDVWSLGITLYELATGRFPYPKWNSVFDQLTQVVKGDPPQLSNSEEREFSPSFINFVNLCLTKDESKRPKYKELLKHPFILMYEERAVEVACYVCKILDQMPATPSSPMYVD
# B4: JNK1 WT: wild type MAPK8/JNK1 kinase ORF expressed in HMEL cells (protein, UniProt P45983 1-427, looked up)
# Mitogen-activated protein …: MSRSKRDNNFYSVEIGDSTFTVLKRYQNLKPIGSGAQGIVCAAYDAILERNVAIKKLSRPFQNQTHAKRAYRELVLMKCVNHKNIIGLLNVFTPQKSLEEFQDVYIVMELMDANLCQVIQMELDHERMSYLLYQMLCGIKHLHSAGIIHRDLKPSNIVVKSDCTLKILDFGLARTAGTSFMMTPYVVTRYYRAPEVILGMGYKENVDLWSVGCIMGEMVCHKILFPGRDYIDQWNKVIEQLGTPCPEFMKKLQPTVRTYVENRPKYAGYSFEKLFPDVLFPADSEHNKLKASQARDLLSKMLVIDASKRISVDEALQHPYINVWYDPSEAEAPPPKIPDKQLDEREHTIEEWKELIYKEVMDLEERTKNGVIRGQPSPLGAAVINGSQHPSSSSSVNDVSSMSTDPTLASDTDSSLEAAAGPLGCCR
# B5: MAP2K7 p.R162C: MAP2K7 somatic mutant, observed in colorectal adenocarcinoma (protein, UniProt O14733 2-419, looked up, variant R162C)
# Dual specificity …: AASSLEQKLSRLEAKLKQENREARRRIDLNLDISPQRPRPTLQLPLANDGGSRSPSSESSPQHPTPPARPRHMLGLPSTLFTPRSMESIEIDQKLQEIMKQTGYLTIGGQRYQAEINDLENLGEMGSGTCGQVWKMRFRKTGHVIAVKQMRRSGNKEENKCILMDLDVVLKSHDCPYIVQCFGTFITNTDVFIAMELMGTCAEKLKKRMQGPIPERILGKMTVAIVKALYYLKEKHGVIHRDVKPSNILLDERGQIKLCDFGISGRLVDSKAKTRSAGCAAYMAPERIDPPDPTKPDYDIRADVWSLGISLVELATGQFPYKNCKTDFEVLTKVLQEEPPLLPGHMGFSGDFQSFVKDCLTKDHRKRPKYNKLLEHSFIKRYETLEVDVASWFKDVMAKTESPRTSGVLSQPHLPFFR
# B6: MAP2K7 p.R162H: MAP2K7 somatic mutant, observed in colorectal adenocarcinoma (protein, UniProt O14733 2-419, looked up, variant R162H)
# Dual specificity …: AASSLEQKLSRLEAKLKQENREARRRIDLNLDISPQRPRPTLQLPLANDGGSRSPSSESSPQHPTPPARPRHMLGLPSTLFTPRSMESIEIDQKLQEIMKQTGYLTIGGQRYQAEINDLENLGEMGSGTCGQVWKMRFRKTGHVIAVKQMRRSGNKEENKHILMDLDVVLKSHDCPYIVQCFGTFITNTDVFIAMELMGTCAEKLKKRMQGPIPERILGKMTVAIVKALYYLKEKHGVIHRDVKPSNILLDERGQIKLCDFGISGRLVDSKAKTRSAGCAAYMAPERIDPPDPTKPDYDIRADVWSLGISLVELATGQFPYKNCKTDFEVLTKVLQEEPPLLPGHMGFSGDFQSFVKDCLTKDHRKRPKYNKLLEHSFIKRYETLEVDVASWFKDVMAKTESPRTSGVLSQPHLPFFR
# B7: JNK2 p.V13M: JNK2 somatic mutant, observed in colorectal adenocarcinoma (protein, UniProt P45984 1-424, looked up, variant V13M)
# Mitogen-activated protein …: MSDSKCDSQFYSMQVADSTFTVLKRYQQLKPIGSGAQGIVCAAFDTVLGINVAVKKLSRPFQNQTHAKRAYRELVLLKCVNHKNIISLLNVFTPQKTLEEFQDVYLVMELMDANLCQVIHMELDHERMSYLLYQMLCGIKHLHSAGIIHRDLKPSNIVVKSDCTLKILDFGLARTACTNFMMTPYVVTRYYRAPEVILGMGYKENVDIWSVGCIMGELVKGCVIFQGTDHIDQWNKVIEQLGTPSAEFMKKLQPTVRNYVENRPKYPGIKFEELFPDWIFPSESERDKIKTSQARDLLSKMLVIDPDKRISVDEALRHPYITVWYDPAEAEAPPPQIYDAQLEEREHAIEEWKELIYKEVMDWEERSKNGVVKDQPSDAAVSSNATPSQSSSINDISSMSTEQTLASDTDSSLDASTGPLEGCR
# B8: JNK2 p.K56N: JNK2 somatic mutant, observed in head & neck squamous cell (protein, UniProt P45984 1-424, looked up, variant K56N)
# Mitogen-activated protein …: MSDSKCDSQFYSVQVADSTFTVLKRYQQLKPIGSGAQGIVCAAFDTVLGINVAVKNLSRPFQNQTHAKRAYRELVLLKCVNHKNIISLLNVFTPQKTLEEFQDVYLVMELMDANLCQVIHMELDHERMSYLLYQMLCGIKHLHSAGIIHRDLKPSNIVVKSDCTLKILDFGLARTACTNFMMTPYVVTRYYRAPEVILGMGYKENVDIWSVGCIMGELVKGCVIFQGTDHIDQWNKVIEQLGTPSAEFMKKLQPTVRNYVENRPKYPGIKFEELFPDWIFPSESERDKIKTSQARDLLSKMLVIDPDKRISVDEALRHPYITVWYDPAEAEAPPPQIYDAQLEEREHAIEEWKELIYKEVMDWEERSKNGVVKDQPSDAAVSSNATPSQSSSINDISSMSTEQTLASDTDSSLDASTGPLEGCR
# B9: MAP2K4 WT: wild type MAP2K4 kinase ORF expressed from lentiviral vector in HMEL cells (protein, UniProt P45985 1-399, looked up)
# chain: MAAPSPSGGGGSGGGSGSGTPGPVGSPAPGHPAVSSMQGKRKALKLNFANPPFKSTARFTLNPNPTGVQNPHIERLRTHSIESSGKLKISPEQHWDFTAEDLKDLGEIGRGAYGSVNKMVHKPSGQIMAVKRIRSTVDEKEQKQLLMDLDVVMRSSDCPYIVQFYGALFREGDCWICMELMSTSFDKFYKYVYSVLDDVIPEEILGKITLATVKALNHLKENLKIIHRDIKPSNILLDRSGNIKLCDFGISGQLVDSIAKTRDAGCRPYMAPERIDPSASRQGYDVRSDVWSLGITLYELATGRFPYPKWNSVFDQLTQVVKGDPPQLSNSEEREFSPSFINFVNLCLTKDESKRPKYKELLKHPFILMYEERAVEVACYVCKILDQMPATPSSPMYVD
# modifications: full-length
# notes: wild type MAP2K4 kinase ORF expressed from lentiviral vector in HMEL cells
# Tests used:
# cJUN phosphorylation = experiment: JNK Kinase Assay (WT and mutant kinases immunoprecipitated from HMEL cells); assay type: biochemical, human; conditions: as reported by level of cJUN phosphorylation; for MAP2K4/7 first incubated with inactive JNK2
# [1] = tested on: HMEL-BRAF^V600E melanocytes; experiment: In vivo functional genetic screen and secondary validation: kinase-transduced HMEL cells implanted in nude mice; set-up: species or system human; conditions: for Tumorigenicity in vivo: WT or mutant kinase expressed individually
# Text: A ‘cancer-kinase’ library was constructed containing sequence-verified ORFs in a lentiviral vector for 110 of the 120 kinases reported to sustain somatic driver mutations in diverse human cancers. This library was pooled and introduced into a human HMEL-BRAF^V600E melanocyte model system engineered with BRAF^V600E and TERT as well as p53DD and CDK4-R24C to inactivate the […] pathways, respectively. The HMEL-BRAF^V600E melanocyte profile, while representing the most common clinically-definable genetic profile in human melanoma, is insufficient to drive efficient melanoma formation following orthotopic transplantation in the skin (penetrance of 10% and latency of 26 weeks). In contrast, 40% of HMEL-BRAF^V600E melanocytes transduced with the cancer kinase pools developed tumors with an average latency of 13 weeks (range 10-18 weeks).
# In vivo functional genetic screens: Lentivirus were prepared by co-transfecting 293T cells with individual vector backbones and standard virus packaging systems for subsequent collection of viral supernatants. Viral supernatants were then pooled randomly to generate 8 pools of high-titer lentiviral stocks. HMEL cells were transduced with either GFP control lentivirus or each representative lentiviral pool in the presence of 8 ug/ml polybrene (Company). Infected cells were expanded, mixed 1:1 with Matrigel (BD Bioscience) and then subcutaneously implanted in female nude animals (Taconic) at 1×10^6 cells per site on both flanks. Primary INK4A/ARF−/−, PTEN−/− murine astrocytes were transduced with either GFP control lentivirus or each representative lentiviral pool in the presence of 8 ug/ml polybrene (Company). Infected cells were expanded implanted into the brain parenchyma of female SCID mice (Charles River). Briefly, SCID mice were anesthetized and placed into a stereotactic apparatus equipped with a Z axis (Stoelting). A small hole was bored in the skull 0.5 mm anterior and 3.0 mm lateral to the bregma using a dental drill. Twenty thousand cells in Hank's Buffered Salt Solution were injected into the right caudate nucleus 2 mm below the surface of the brain using a 10-ul Hamilton syringe with an unbeveled 30 gauge needle. The scalp was closed using a 9-mm Autoclip Applier. Animals were followed daily for the development of subQ tumors or signs of neurological deficits. Animals were sacrifice, tumors were harvested, genomic DNA was prepared and kinases expressed in each tumor identified using PCR sequencing using plasmid specific CMV and V5 primers. Expression of each kinase was further validated by western blot analysis. Kinases expressed in each tumor were then enlisted into secondary validation screens in which stable HMEL or mouse astrocyte lines were generated expressing each kinase individually. Cells were again expanded and then implanted in female nude or SCID animals. All mice were housed and treated in accordance with protocols approved by the institutional care and use committees for animal research at the Dana-Farber Cancer Institute.
Molecule,Kinase Activity (cJUN phosphorylation),Tumorigenicity in vivo [1],other results
B1,1X,–,–
B2,<1X,–,–
B3,2.5X^,–,–
B4,–,YES,tumor generation individually in secondary HMEL screens ([1]; kinase transduced individually): did not generate tumors
B5,1X,–,–
B6,1X,–,–
B7,–,YES,–
B8,–,YES,–
B9,1X,YES,"tumor penetrance ([1]; secondary validation, kinase transduced individually into HMEL-BRAF^V600E melanocytes): 30%"

# Reference: patent publication US20130040853A1, “Context Specific Genetic Screen Platform to Aid in Gene Discovery and Target Validation” (Dana-Farber Cancer Institute Inc., priority 2010, published 2013)
